# Results reported in paper PMC3177189.
# Where two headings read alike, the source gives them in different places.
# T1: AaNusB;AaNusE (S10) loop deletion (Aquifex aeolicus;Aquifex aeolicus, UniProt O66530;O66430 1-148;1-46+=S+69-104, |internal_change)
# T1 sequence 1: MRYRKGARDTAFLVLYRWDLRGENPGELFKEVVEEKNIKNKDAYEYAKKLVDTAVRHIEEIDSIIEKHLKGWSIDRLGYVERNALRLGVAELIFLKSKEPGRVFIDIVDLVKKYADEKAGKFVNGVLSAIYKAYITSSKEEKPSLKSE
# T1 sequence 2: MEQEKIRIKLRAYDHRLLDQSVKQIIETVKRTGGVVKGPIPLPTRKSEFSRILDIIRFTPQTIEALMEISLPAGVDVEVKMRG
# B1: AaBoxA duplex (dsRNA) (dsRNA)
# RNA 1: GGCUCCUUGGCA
# RNA 2: GGCUCCUUGGCA
# Key:
# [1] = target: T1, AaNusB;AaNusE (S10) loop deletion; experiment: crystal structure
# [2] = target: T1, AaNusB;AaNusE (S10) loop deletion; experiment: crystal structure; remark: listed apart in the source
# [3] = target: EcNusB wt (Escherichia coli, UniProt P0A780 1-139); experiment: NMR
# [4] = target: EcNusB F122D (Escherichia coli, UniProt P0A780 1-139, F122D); experiment: ITC
binder,measurement,setting,value
GGCUCCUUGGCA (ssRNA) [AaBoxA],binding result,[1],binds
B1,binding result,[2],binds
GCCGCGCCGCUGAGAAAAAGCGAAGCGGCACUGCUCUUUA (structured_RNA) [EcBoxA-BoxB],binding result,[3],binds
UGCUCUUUAACA (ssRNA) [EcBoxA],binding result,[4],no binding
